Experimental data published in publication doi:10.1101/2024.07.30.605930 (bioRxiv, 2024).
Positions count from the first letter of the chain named. Names and notes keep the numbering of the source. Values joined by “and” are separate entries in the source; they are usually repeats but may differ in a detail not shown here. Equal entries are not always repeated.

Experiments:
negative-stain EM = biological target: the molecule itself; assay: negative-stain EM
cryo-EM structure = biological target: the molecule itself; assay: cryo-EM structure

B1: FliF(Δ165–167) (natural protein, Salmonella enterica serovar Typhimurium)
chain: MSATASTATQPKPLEWLNRLRANPRIPLIVAGSAAVAIVVAMVLWAKTPDYRTLFSNLSDQDGGAIVAQLTQMNIPYRFANGSGAIEVPADKVHELRLRLAQQGLPKGGAVGFELLDQEKFGISQFSEQVNYQRALEGELARTIETLGPVKSARVHLAMPKPSLEQKSPSASVTVTLEPGRALDEGQISAVVHLVSSAVAGLPPGNVTLVDQSGHLLTQSNTSGRDLNDAQLKFANDVESRIQRRIEAILSPIVGNGNVHAQVTAQLDFANKEQTEEHYSPNGDASKATLRSRQLNISEQVGAGYPGGVPGALSNQPAPPNEAPIATPPTNQQNAQNTPQTSTSTNSNSAGPRSTQRNETSNYEVDRTIRHTKMNVGDIERLSVAVVVNYKTLADGKPLPLTADQMKQIEDLTREAMGFSDKRGDTLNVVNSPFSAVDNTGGELPFWQQQSFIDQLLAAGRWLLVLVVAWILWRKAVRPQLTRRVEEAKAAQEQAQVRQETEEAVEVRLSKDEQLQQRRANQRLGAEVMSQRIREMSDNDPRVVALVIRQWMSNDHE
- binding result (negative-stain EM): binds

B2: FliF (natural protein, Salmonella enterica serovar Typhimurium, UniProt P15928 1-560, looked up)
chain: MSATASTATQPKPLEWLNRLRANPRIPLIVAGSAAVAIVVAMVLWAKTPDYRTLFSNLSDQDGGAIVAQLTQMNIPYRFANGSGAIEVPADKVHELRLRLAQQGLPKGGAVGFELLDQEKFGISQFSEQVNYQRALEGELARTIETLGPVKSARVHLAMPKPSLFVREQKSPSASVTVTLEPGRALDEGQISAVVHLVSSAVAGLPPGNVTLVDQSGHLLTQSNTSGRDLNDAQLKFANDVESRIQRRIEAILSPIVGNGNVHAQVTAQLDFANKEQTEEHYSPNGDASKATLRSRQLNISEQVGAGYPGGVPGALSNQPAPPNEAPIATPPTNQQNAQNTPQTSTSTNSNSAGPRSTQRNETSNYEVDRTIRHTKMNVGDIERLSVAVVVNYKTLADGKPLPLTADQMKQIEDLTREAMGFSDKRGDTLNVVNSPFSAVDNTGGELPFWQQQSFIDQLLAAGRWLLVLVVAWILWRKAVRPQLTRRVEEAKAAQEQAQVRQETEEAVEVRLSKDEQLQQRRANQRLGAEVMSQRIREMSDNDPRVVALVIRQWMSNDHE
- stoichiometry N (cryo-EM structure): 33 and 34

B3: FliF(G217W) (natural protein, Salmonella enterica serovar Typhimurium)
chain: B2 chain with G217W
- binding result (negative-stain EM): binds

B4: FliF(G217P) (natural protein, Salmonella enterica serovar Typhimurium)
chain: B2 chain with G217P
- binding result (negative-stain EM): binds

B5: FliF(G217A) (natural protein, Salmonella enterica serovar Typhimurium)
chain: B2 chain with G217A
- binding result (negative-stain EM): binds

B6: FliF(Δ214–220) (natural protein, Salmonella enterica serovar Typhimurium)
chain: MSATASTATQPKPLEWLNRLRANPRIPLIVAGSAAVAIVVAMVLWAKTPDYRTLFSNLSDQDGGAIVAQLTQMNIPYRFANGSGAIEVPADKVHELRLRLAQQGLPKGGAVGFELLDQEKFGISQFSEQVNYQRALEGELARTIETLGPVKSARVHLAMPKPSLFVREQKSPSASVTVTLEPGRALDEGQISAVVHLVSSAVAGLPPGNVTLVTQSNTSGRDLNDAQLKFANDVESRIQRRIEAILSPIVGNGNVHAQVTAQLDFANKEQTEEHYSPNGDASKATLRSRQLNISEQVGAGYPGGVPGALSNQPAPPNEAPIATPPTNQQNAQNTPQTSTSTNSNSAGPRSTQRNETSNYEVDRTIRHTKMNVGDIERLSVAVVVNYKTLADGKPLPLTADQMKQIEDLTREAMGFSDKRGDTLNVVNSPFSAVDNTGGELPFWQQQSFIDQLLAAGRWLLVLVVAWILWRKAVRPQLTRRVEEAKAAQEQAQVRQETEEAVEVRLSKDEQLQQRRANQRLGAEVMSQRIREMSDNDPRVVALVIRQWMSNDHE
- binding result (negative-stain EM): binds

B7: FliFΔ(221–227) (natural protein, Salmonella enterica serovar Typhimurium)
chain: B6 chain with T214D, N217G, T218H, S219L, G220L
- binding result (negative-stain EM): binds
